From publication PMC8081927 (The Journal of Biological Chemistry, 2021)
Residue numbers refer to the chain shown, from its start. “And” between values parts separate entries of the source, which are not always exact repeats. Equal values may be shown once.

Key:
[1] = target: T1, Aβ2-42 fibrils (Homo sapiens (species , …, UniProt P05067)); experiment: far-Western, overlay or dot blot; immunodot blot: fibrils of Aβ1-42 and N-terminal truncations spotted on nitrocellulose at equal Thioflavin T fluorescence; antibodies at 10 nM in PBST with 1% milk; anti-human Fc HRP, 3 min exposure; conditions: both partners purified
T1 construct: amyloid beta peptide with N-terminal deletion, Aβ2-42; Amyloid fibrils; also called fibrils without the first residue; source: synthetic peptide, bought: Bachem; assembled into fibrils, purified by ultracentrifugation

[2] = target: T2, Aβ3-42 fibrils (Homo sapiens (species , …, UniProt P05067)); experiment: as above; conditions: both partners purified
T2 construct: amyloid beta peptide with N-terminal deletion, Aβ3-42; Amyloid fibrils; also called fibrils without the first two residues; source: synthetic peptide, bought: Bachem; assembled into fibrils, purified by ultracentrifugation

[3] = target: T3, Aβ4-42 fibrils (Homo sapiens (species , …, UniProt P05067)); experiment: as above; conditions: both partners purified
T3 construct: amyloid beta peptide with N-terminal deletion, Aβ4-42; Amyloid fibrils; source: synthetic peptide, bought: Bachem; assembled into fibrils, purified by ultracentrifugation

[4] = target: T4, Aβ5-42 fibrils (Homo sapiens (species , …, UniProt P05067)); experiment: as above; conditions: both partners purified
T4 construct: amyloid beta peptide with N-terminal deletion, Aβ5-42; Amyloid fibrils; source: synthetic peptide, bought: Bachem; assembled into fibrils, purified by ultracentrifugation

[5] = target: T5, Aβ11-42 fibrils (Homo sapiens (species , …, UniProt P05067)); experiment: as above; conditions: both partners purified
T5 construct: amyloid beta peptide with N-terminal deletion, Aβ11-42; Amyloid fibrils; source: synthetic peptide, bought: Anaspec; assembled into fibrils, purified by ultracentrifugation
T5 chain: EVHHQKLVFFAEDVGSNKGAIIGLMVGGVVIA

[6] = target: T6, Aβ1-42 fibrils (Homo sapiens (species , …, UniProt P05067, biotin on 1% of the peptides in the fibrils for the bead assays; unlabeled fibrils on the blots); experiment: flow cytometry on beads; Aβ fibrils (1% biotinylated, 1 μM) immobilised on streptavidin Dynabeads, blocked with 10% milk; antibody dilutions in PBSB with 1% milk, 3 h, 25 °C; detected with goat anti-human Fc AF647; apparent affinity (EC50); conditions: both partners purified
T6 construct: amyloid beta peptide 1-42 (Aβ1-42), cut product of the amyloid precursor protein; also called Aβ fibrils; Aβ42 fibrils; source: synthetic peptide, bought: Anaspec; assembled into fibrils at 37 °C with 10% fibril seeds, purified by ultracentrifugation

[7] = target: T7, Aβ aggregates formed in vivo in 5xFAD transgenic mouse brain (human); experiment: far-Western, overlay or dot blot; immunodot blot: brain extracts (7 μg total protein) of 5xFAD and wild-type mice spotted on nitrocellulose; antibodies at 50 nM in TBST with 1% milk, overnight, 4 °C; conditions: one partner purified
T7 construct: Aβ derived from human amyloid precursor protein (APP) expressed in 5xFAD mice; the APP transgene carries the Swedish (K670N/M671L), Florida (I716V) and London (V717I) mutations; The target stands in a brain homogenate or tissue section, not as a pure peptide; also called 5xFAD samples; Aβ plaques

[8] = target: T6, Aβ1-42 fibrils; experiment: far-Western, overlay or dot blot; immunodot blot: disaggregated Aβ and fibrils of Aβ, IAPP and α-synuclein spotted on nitrocellulose; antibodies at 10 nM in PBST with 1% milk, room temperature, 3 h; anti-human Fc HRP, X-ray film, 30 s or 45 min exposure; conditions: both partners purified
[9] = target: T8, disaggregated Aβ1-42 (Homo sapiens (species , …, UniProt P05067)); experiment: as above; conditions: both partners purified
T8 construct: amyloid beta peptide 1-42 (Aβ1-42), cut product of the amyloid precursor protein; also called disaggregated (D) Aβ; disaggregated Aβ42; source: synthetic peptide, bought: Anaspec; dissolved in HFIP, then 50 mM NaOH, ultracentrifuged, neutralised

B1: crenezumab (variable domains grafted onto an IgG1 scaffold with a human Fc fragment) (antibody, V domains shown)
VH: EVQLVESGGGLVQPGGSLRLSCAASGFTFSSYGMSWVRQAPGKGLELVASINSNGGSTYYPDSVKGRFTISRDNAKNSLYLQMNSLRAEDTAVYYCASGDYWGQGTTVTVSS
VL: DIVMTQSPLSLPVTPGEPASISCRSSQSLVYSNGDTYLHWYLQKPGQSPQLLIYKVSNRFSGVPDRFSGSGSGTDFTLKISRVEAEDVGVYYCSQSTHVPWTFGQGTKVEIK
notes: heavy-chain variable domain of crenezumab; light-chain variable domain of crenezumab; IgG1 here; source: HEK293-6E expression plasmids, transfected cells, purified from the medium (Protein A)
B1: binds [1]; binds [2]; binds [3]. B1: binds [4]; binds [5].

B2: AF1 (scFv, V domains shown)
VH: EVQLVESGGGLVQPGGSLRLSCAASGFNIKDTYIHWVRQAPGKGLEWVARIYPTNGYTRYADSVKGRFTISADTSKNTAYLQMNSLRAEDTAVYYCARDGYDGSYFVGYDYNDFYDYWGQGTLVTVSS
VL: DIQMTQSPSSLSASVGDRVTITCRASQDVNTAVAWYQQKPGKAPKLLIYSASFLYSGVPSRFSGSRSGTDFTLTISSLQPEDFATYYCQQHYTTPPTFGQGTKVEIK
notes: scFv-Fc fusion protein; also called lead antibody; parental antibody; source: HEK293-6E expression plasmids, transfected cells, purified from the medium (Protein A)
B2 showed an EC50 [6] of 99 nM.

B3: clone 97 (scFv, V domains shown)
VH: B2 VH with T54A, N55S, Y57A
VL: DIQMTQSPSSLSASVGDRVTITCRASQNVAYAVTWYQQKPGKAPKLLIYSASFLYSGVPSRFSGSRSGTDFTLTISSLQPEDFATYYCQQHSTYPPTFGQGTKVEIK
notes: scFv-Fc fusion protein; Parent of 97A3; source: HEK293-6E expression plasmids, transfected cells, purified from the medium (Protein A)
For B3, the EC50 [6] was 8 nM and 18 nM.

B4: clone 93 (scFv, V domains shown)
VH: B2 VH with T54S, D62G
VL: B3 VL with A30Y, Y31N, S92N
notes: scFv-Fc fusion protein; source: HEK293-6E expression plasmids, transfected cells, purified from the medium (Protein A)
B4: binds [7]; binds [8]; binds [9].
